Measured values: patent US20040048327

Tests used:
[1] = target: T1, Cbz-Leu-Leu-ALeu-(2S, 3S)-EP-COOEt
T1 chain: LLL

[2] = target: T2, Boc-Nle-AHph-trans-EP-CH2CH2Ph
T2 chain: XX

[3] = target: T3, Cbz-Leu-ALeu-(2S, 3S)-EP-COOEt
T3 chain: LL

[4] = target: T4, Ac-Leu-ALeu-trans-EP-COOEt
T4 chain: LL

[5] = target: T5, PhPr-Val-Ala-AAsp-trans-EP-CH2CH2Ph
T5 chain: VAD

Cbz-AHph-trans-EP-COOEt = target: T6, Cbz-AHph-trans-EP-COOEt
T6 chain: X

[6] = target: T7, Cbz-APhe-trans-EP-CH2CH2Ph
T7 chain: F

[7] = target: T8, Cbz-Leu-Leu-ALeu-(2S, 3S)-EP-COOH
T8 chain: LLL

[8] = target: T9, Cbz-Ala-Ala-AAsn-cis-EP-COOEt
T9 chain: AAN

Cbz-ALeu-trans-EP-COOEt = target: T10, Cbz-ALeu-trans-EP-COOEt
T10 chain: L

[9] = target: T11, Cbz-Phe-ALeu-trans-EP-CH2CH2Ph
T11 chain: FL

[10] = target: T12, Cbz-Leu-AAbu-trans-EP-COOH
T12 chain: LX

[11] = target: T13, Cbz-Leu-AHph-(2R, 3R)-EP-COOEt
T13 chain: LX

[12] = target: T14, Cbz-Leu-ALeu-(2R, 3R)-EP-COOEt
T14 chain: LL

[13] = target: T15, Cbz-Phe-ALeu-trans-EP-COOEt
T15 chain: FL

[14] = target: T16, Cbz-Leu-ALeu-cis-EP-COOEt
T16 chain: LL

[15] = target: T17, Cbz-Leu-Glu-Thr-AAsp-(2R, 3R)-EP-COOEt
T17 chain: LETD

Ac-AHph-trans-EP-COOEt = target: T18, Ac-AHph-trans-EP-COOEt
T18 chain: X

[16] = target: T19, Ac-Leu-AHph-trans-EP-COOEt
T19 chain: LX

[17] = target: T20, Cbz-Ala-Ala-AAsn-(2S, 3S)-EP-COOEt
T20 chain: AAN

[18] = target: T21, Cbz-Leu-Leu-ALeu-(2R, 3R)-EP-COOEt
T21 chain: LLL

[19] = target: T22, Cbz-Asp-Glu-Val-AAsp-(2R, 3R)-EP-COOEt (not fully specified)
T22 chain: DEVD

[20] = target: T23, Cbz-Leu-AHph-(2S, 3S)-EP-COOEt
T23 chain: LX

[21] = target: T24, Boc-Nle-AHph-trans-EP-COOEt
T24 chain: XX

Cbz-APhe-trans-EP-COOEt = target: T25, Cbz-APhe-trans-EP-COOEt
T25 chain: F

[22] = target: T26, Boc-Nva-AHph-trans-EP-COOEt
T26 chain: XX

[23] = target: T27, Boc-Abu-AHph-trans-EP-CH2CH2Ph
T27 chain: XX

[24] = target: T28, Cbz-Asp-Glu-Val-AAsp-(2S, 3S)-EP-COOEt (not fully specified)
T28 chain: DEVD

[25] = target: T29, PhPr-Val-Ala-AAsp-trans-EP-COOCH2Ph
T29 chain: VAD

[26] = target: T30, Cbz-Leu-Leu-ALeu-trans-EP-COOEt
T30 chain: LLL

[27] = target: T31, Cbz-Leu-Glu-Thr-AAsp-(2S, 3S)-EP-COOEt
T31 chain: LETD

[28] = target: T32, Cbz-Phe-APhe-trans-EP-CH2CH2Ph
T32 chain: FF

[29] = target: T33, Boc-Np2-ALeu-trans-EP-COOEt
T33 chain: XL

[30] = target: T34, Cbz-Ala-Ala-AAsn-(2R, 3R)-EP-COOEt
T34 chain: AAN

[31] = target: T35, Cbz-Ala-Ala-AAsn-trans-EP-COOEt
T35 chain: AAN

[32] = target: T36, Cbz-Ala-Ala-NHN(CH2COOEt)-trans-EP-COOEt
T36 chain: AAD

[33] = target: T37, Cbz-Leu-Phe-AGln-trans-EP-COOEt
T37 chain: LFQ

[34] = target: T38, Cbz-Leu-ALeu-trans-EP-COOEt
T38 chain: LL

[35] = target: T39, Cbz-Leu-AAbu-trans-EP-COOEt
T39 chain: LX

[36] = target: T40, Suc-Np2-ALeu-trans-EP-COOEt
T40 chain: XL

[37] = target: T41, Cbz-Leu-AHph-cis-EP-COOEt
T41 chain: LX

B1: papain (protein)
chain: IPEYVDWRQKGAVTPVKNQGSCGSCWAFSAVVTIEGIIKIRTGNLNEYSEQELLDCDRRSYGCNGGYPWSALQLVAQYGIHYRNTYPYEGVQRYCRSREKGPYAAKTDGVRQVQPYNEGALLYSIANQPVSVVLEAAGKDFQLYRGGIFVGPCGNKVDHAVAAVGYGPNYILIKNSWGTGWGENGYIRIKRGTGNSYGVCGLYTSSFYPVKN
[1]
  kobs/[I]: 10.5 M⁻¹ s⁻¹
[2]
  kobs/[I]: 0.5 M⁻¹ s⁻¹
[3]
  kobs/[I]: 10.5 M⁻¹ s⁻¹
[4]
  kobs/[I]: 2.09 M⁻¹ s⁻¹
[5]
  kobs/[I]: NI
Cbz-AHph-trans-EP-COOEt
  kobs/[I]: 18.8 M⁻¹ s⁻¹
[6]
  kobs/[I]: 0.92 M⁻¹ s⁻¹
[7]
  kobs/[I]: 6.93 M⁻¹ s⁻¹
[8]
  kobs/[I]: NI
Cbz-ALeu-trans-EP-COOEt
  kobs/[I]: 16.1 M⁻¹ s⁻¹
[9]
  kobs/[I]: 0.7 M⁻¹ s⁻¹
[10]
  kobs/[I]: 1.47 M⁻¹ s⁻¹
[11]
  kobs/[I]: 2.16 M⁻¹ s⁻¹
[12]
  kobs/[I]: 6.7 M⁻¹ s⁻¹
[13]
  kobs/[I]: 0.91 M⁻¹ s⁻¹
[14]
  kobs/[I]: 0.38 M⁻¹ s⁻¹
[15]
  kobs/[I]: 0.24 M⁻¹ s⁻¹
Ac-AHph-trans-EP-COOEt
  kobs/[I]: 26.9 M⁻¹ s⁻¹
[16]
  kobs/[I]: 1.9 M⁻¹ s⁻¹
[17]
  kobs/[I]: 4 M⁻¹ s⁻¹
[18]
  kobs/[I]: 20.6 M⁻¹ s⁻¹
[19]
  kobs/[I]: NI
[20]
  kobs/[I]: 5.68 M⁻¹ s⁻¹
[21]
  kobs/[I]: 1.6 M⁻¹ s⁻¹
Cbz-APhe-trans-EP-COOEt
  kobs/[I]: 8.5 M⁻¹ s⁻¹
[22]
  kobs/[I]: 1.4 M⁻¹ s⁻¹
[23]
  kobs/[I]: 0.2 M⁻¹ s⁻¹
[24]
  kobs/[I]: NI
[25]
  kobs/[I]: < 10 M⁻¹ s⁻¹
[26]
  kobs/[I]: 34.8 M⁻¹ s⁻¹
[27]
  kobs/[I]: 0.47 M⁻¹ s⁻¹
[28]
  kobs/[I]: 0.5 M⁻¹ s⁻¹
[29]
  kobs/[I]: 3.9 M⁻¹ s⁻¹
[30]
  kobs/[I]: 3 M⁻¹ s⁻¹
[31]
  kobs/[I]: 0.9 M⁻¹ s⁻¹
[32]
  kobs/[I]: 8.17 M⁻¹ s⁻¹
[33]
  kobs/[I]: 0.9 M⁻¹ s⁻¹
[34]
  kobs/[I]: 6.37 M⁻¹ s⁻¹
[35]
  kobs/[I]: 4.94 M⁻¹ s⁻¹
[36]
  kobs/[I]: 1.39 M⁻¹ s⁻¹
[37]
  kobs/[I]: 1.03 M⁻¹ s⁻¹
